We go through four molecules from patent publication US12460006B2, “Antibodies against integrin alpha 11 beta 1” (Momenta Pharmaceuticals, Inc., priority 2019, dated 2025).

The test system of assay [1] is human pulmonary fibroblasts (HPFs). Put plainly: FACS antibody binding to human pulmonary fibroblasts. As to conditions: binding Yes/No.
Assay [2] relates to α1β1, α2β1 and/or α10β1. Put plainly: Counter-screen for cross-reactivity to other collagen receptors. The format is binding, human. The note with it: cross-reactivity to α1β1, α2β1, α10β1. Put shortly: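 Cross-reactivity was checked by ELISA counter-screen on human α1β1, α2β1 and α10β1. Tested material was hybridoma clones from rats or mice immunized with α11β1, previously selected for binding to soluble human and mouse α11β1.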
For orientation: A counterscreen serves to expose hits that act by an unwanted route or on another target.

In assay [3] the test system is CHO-K1 cells expressing human α11. In words: Cell adhesion inhibition (xCelligence), type I collagen. Type of assay: cell-based. As to conditions: Yes/No. The gist of the method:
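CHO-K1 cells expressing human α11 (0.6×10^6 cells/mL) were preincubated with mAbs across a concentration range for 20 min at 37° C, then seeded on wells coated with 100 ng/mL type I collagen and blocked with 3% BSA. Impedance-based adhesion was recorded over 6 h, and maximum adhesion was compared with untreated control.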

Assay [4] concerns the target T1, I domain of α11β1 (Homo sapiens, UniProt Q9UKX5).
T1 construct: An in-house generated I domain of α11β1 was used; made in house
T1 sequence (Q9UKX5 164-345 limits assumed): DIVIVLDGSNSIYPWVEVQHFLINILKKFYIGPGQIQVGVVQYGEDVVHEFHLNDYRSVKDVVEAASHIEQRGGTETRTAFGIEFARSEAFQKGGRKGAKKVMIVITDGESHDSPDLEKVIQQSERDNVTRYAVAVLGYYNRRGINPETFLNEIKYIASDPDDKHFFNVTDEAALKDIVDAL
In words: ELISA binding to in-house generated I domain of α11β1. As to conditions: Yes/No. The gist of the method: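 Plate-coated antigen (0.25 μg/mL, overnight 4° C) probed with antibody dilution series 1 h at room temperature, then biotinylated anti-IgG and streptavidin-HRP, 1 h each. TMB substrate 5 min, stopped, absorbance at 450 nm; in-house I domain of α11β1 used as target.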
For orientation: An ELISA detects its analyte on a solid surface through an enzyme-linked reagent.

Assay [5] concerns the target human α11β1 (Homo sapiens, UniProt Q9UKX5). In words: ELISA binding to recombinant human α11β1. The note with it: binding Yes/No. Put shortly:
(§1)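 Direct ELISA against human or mouse α11β1 coated at 0.25 μg/mL; antibody titration 1 h at room temperature, HRP-based colorimetric read-out at 450 nm.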

In assay [6] the target is mouse α11β1 (Mus musculus, UniProt P61622). In words: ELISA binding to recombinant mouse α11β1. The note with it: binding Yes/No. Put shortly:
as §1

In assay [7] the test system is myofibroblasts (MF). Put plainly: FACS antibody binding to myofibroblasts. As to conditions: binding Yes/No. On the set-up: species or system human. The gist of the method: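 Human pulmonary fibroblasts, serum-starved 24 h then TGFβ-1-treated 72 h to give myofibroblasts, were blocked with heat-inactivated FBS and stained with anti-α11 antibodies, then PE secondary, 30 min each at 4 °C, before 1% PFA fixation. Binding read by flow cytometry as PE geometric MFI of single cells.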

Chain of mouse α11β1 (P61622 23-1141 limits assumed): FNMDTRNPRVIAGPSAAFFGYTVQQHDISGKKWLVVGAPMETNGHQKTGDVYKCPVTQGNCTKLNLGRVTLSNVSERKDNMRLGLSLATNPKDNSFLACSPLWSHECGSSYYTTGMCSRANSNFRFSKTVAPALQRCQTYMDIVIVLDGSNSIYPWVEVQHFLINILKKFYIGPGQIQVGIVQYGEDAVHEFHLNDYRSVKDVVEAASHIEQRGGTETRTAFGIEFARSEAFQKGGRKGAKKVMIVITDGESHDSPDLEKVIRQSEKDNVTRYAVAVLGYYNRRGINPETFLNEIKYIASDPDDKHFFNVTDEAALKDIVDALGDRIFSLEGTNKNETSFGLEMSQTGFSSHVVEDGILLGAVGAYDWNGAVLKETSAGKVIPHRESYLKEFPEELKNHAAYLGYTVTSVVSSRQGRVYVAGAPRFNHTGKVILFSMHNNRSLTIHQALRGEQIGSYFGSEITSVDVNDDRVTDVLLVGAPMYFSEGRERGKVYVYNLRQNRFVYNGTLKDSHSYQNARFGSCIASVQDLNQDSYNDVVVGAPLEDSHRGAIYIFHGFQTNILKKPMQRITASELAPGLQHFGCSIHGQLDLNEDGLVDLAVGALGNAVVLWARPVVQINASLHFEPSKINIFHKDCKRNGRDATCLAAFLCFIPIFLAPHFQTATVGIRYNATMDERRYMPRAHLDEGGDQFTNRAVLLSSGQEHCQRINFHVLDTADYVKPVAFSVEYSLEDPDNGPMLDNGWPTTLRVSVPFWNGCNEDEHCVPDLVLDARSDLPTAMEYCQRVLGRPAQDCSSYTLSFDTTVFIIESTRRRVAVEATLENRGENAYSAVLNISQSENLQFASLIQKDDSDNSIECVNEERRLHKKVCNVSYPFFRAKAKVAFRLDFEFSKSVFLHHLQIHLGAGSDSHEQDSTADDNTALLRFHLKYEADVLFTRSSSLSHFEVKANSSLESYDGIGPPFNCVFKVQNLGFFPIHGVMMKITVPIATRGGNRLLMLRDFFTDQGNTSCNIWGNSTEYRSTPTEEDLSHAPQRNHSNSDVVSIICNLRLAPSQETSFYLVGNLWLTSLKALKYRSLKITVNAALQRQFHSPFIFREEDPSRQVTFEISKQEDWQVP
Chain of mouse α11β1 (P09055 21-728 partner limits assumed): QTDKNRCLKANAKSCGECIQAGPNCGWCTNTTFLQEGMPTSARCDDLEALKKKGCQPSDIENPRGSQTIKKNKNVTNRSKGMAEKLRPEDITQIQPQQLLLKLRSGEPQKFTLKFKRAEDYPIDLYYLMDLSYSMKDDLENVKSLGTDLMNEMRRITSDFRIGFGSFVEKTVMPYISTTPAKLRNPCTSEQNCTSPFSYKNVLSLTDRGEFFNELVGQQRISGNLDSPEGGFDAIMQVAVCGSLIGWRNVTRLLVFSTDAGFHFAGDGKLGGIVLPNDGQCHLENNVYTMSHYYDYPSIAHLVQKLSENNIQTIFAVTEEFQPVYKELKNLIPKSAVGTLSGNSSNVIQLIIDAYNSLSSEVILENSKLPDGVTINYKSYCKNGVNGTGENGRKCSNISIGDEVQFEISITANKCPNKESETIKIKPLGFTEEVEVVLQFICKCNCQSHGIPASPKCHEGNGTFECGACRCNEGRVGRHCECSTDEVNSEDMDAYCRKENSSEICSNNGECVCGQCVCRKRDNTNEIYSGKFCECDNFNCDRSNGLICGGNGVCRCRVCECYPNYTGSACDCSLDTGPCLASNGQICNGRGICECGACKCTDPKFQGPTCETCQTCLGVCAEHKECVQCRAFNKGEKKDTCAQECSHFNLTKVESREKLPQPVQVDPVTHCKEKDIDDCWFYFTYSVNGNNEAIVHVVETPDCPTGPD
Chain of human α11β1 (Q9UKX5 23-1141 limits assumed): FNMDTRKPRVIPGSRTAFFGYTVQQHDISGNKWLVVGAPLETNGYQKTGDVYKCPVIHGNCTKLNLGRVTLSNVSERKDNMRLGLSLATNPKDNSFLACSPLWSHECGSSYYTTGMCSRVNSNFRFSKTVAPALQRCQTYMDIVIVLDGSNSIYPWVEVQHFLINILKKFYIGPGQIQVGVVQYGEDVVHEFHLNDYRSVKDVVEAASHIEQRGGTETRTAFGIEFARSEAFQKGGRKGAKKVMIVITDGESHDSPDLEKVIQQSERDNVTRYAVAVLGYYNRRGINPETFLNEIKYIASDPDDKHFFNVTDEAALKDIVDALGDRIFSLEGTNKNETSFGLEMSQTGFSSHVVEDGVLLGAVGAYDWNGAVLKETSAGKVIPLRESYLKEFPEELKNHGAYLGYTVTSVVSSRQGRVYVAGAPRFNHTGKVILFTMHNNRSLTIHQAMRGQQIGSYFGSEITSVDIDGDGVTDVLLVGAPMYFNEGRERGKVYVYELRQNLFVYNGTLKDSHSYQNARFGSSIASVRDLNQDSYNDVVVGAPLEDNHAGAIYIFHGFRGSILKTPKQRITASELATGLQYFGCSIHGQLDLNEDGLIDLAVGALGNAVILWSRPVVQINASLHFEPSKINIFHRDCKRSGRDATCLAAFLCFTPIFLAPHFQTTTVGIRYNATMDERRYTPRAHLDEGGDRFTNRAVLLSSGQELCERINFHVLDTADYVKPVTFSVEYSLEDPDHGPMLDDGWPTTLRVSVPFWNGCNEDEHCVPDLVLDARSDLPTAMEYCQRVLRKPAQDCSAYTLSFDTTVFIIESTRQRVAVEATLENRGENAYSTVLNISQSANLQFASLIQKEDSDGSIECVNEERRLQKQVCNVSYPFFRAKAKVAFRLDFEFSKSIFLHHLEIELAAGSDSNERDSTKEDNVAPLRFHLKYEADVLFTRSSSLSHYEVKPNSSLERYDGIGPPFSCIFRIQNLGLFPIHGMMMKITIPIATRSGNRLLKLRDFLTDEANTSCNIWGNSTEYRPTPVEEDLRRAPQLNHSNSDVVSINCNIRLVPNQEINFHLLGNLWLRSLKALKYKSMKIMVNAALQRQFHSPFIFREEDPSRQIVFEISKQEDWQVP
Chain of human α11β1 (P05556 21-728 partner limits assumed): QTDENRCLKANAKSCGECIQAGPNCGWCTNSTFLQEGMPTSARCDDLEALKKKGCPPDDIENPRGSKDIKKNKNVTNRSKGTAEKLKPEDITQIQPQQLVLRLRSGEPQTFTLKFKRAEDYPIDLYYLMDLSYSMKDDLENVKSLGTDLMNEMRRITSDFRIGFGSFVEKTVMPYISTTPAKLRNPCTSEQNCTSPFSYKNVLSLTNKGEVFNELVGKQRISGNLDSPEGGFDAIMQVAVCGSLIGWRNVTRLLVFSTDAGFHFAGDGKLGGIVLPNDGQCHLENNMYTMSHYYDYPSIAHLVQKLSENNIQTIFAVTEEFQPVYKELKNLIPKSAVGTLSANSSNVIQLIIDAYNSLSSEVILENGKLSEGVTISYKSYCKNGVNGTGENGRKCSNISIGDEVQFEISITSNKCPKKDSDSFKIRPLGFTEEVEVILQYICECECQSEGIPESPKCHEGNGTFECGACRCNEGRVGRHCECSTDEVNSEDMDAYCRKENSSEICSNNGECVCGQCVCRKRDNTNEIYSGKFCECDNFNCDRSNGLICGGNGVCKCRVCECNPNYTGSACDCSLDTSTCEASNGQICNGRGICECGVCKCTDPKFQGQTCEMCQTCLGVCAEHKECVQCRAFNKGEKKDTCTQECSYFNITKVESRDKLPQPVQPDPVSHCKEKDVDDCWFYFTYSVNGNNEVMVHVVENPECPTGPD

B1: 6C7: rabbit anti-α11β1 mAb; heavy chain SEQ ID NO: 185, light chain SEQ ID NO: 186 (antibody)
heavy: METGLRWLLLVAVLKGVQCQQQLEESGGGLVKPGGTLTLTCKASGIDFSSYYYMCWVRQAPGKGLELIVCIYTSSGGTWYASWVNGRLTISRSTSLNTVDLKMTSLTAADTATYFCARGVYSGSSDYPTRLDLWGQGTLVTVSLGQPKAPSVFPLAPCCGDTPSSTVTLGCLVKGYLPEPVTVTWNSGTLTNGVRTFPSVRQSSGLYSLSSVVSVTSSSQPVTCNVAHPATNTKVDKTVAPSTCSKPMCPPPELPGGPSVFIFPPKPKDTLMISRTPEVTCVVVDVSQDDPEVQFTWYINNEQVRTARPPLREQQFNSTIRVVSTLPIAHQDWLRGKEFKCKVHNKALPAPIEKTISKARGQPLEPKVYTMGPPREELSSRSVSLTCMINGFYPSDISVEWEKNGKAEDNYKTTPTVLDSDGSYFLYSKLSVPTSEWQRGDVFTCSVMHEALHNHYTQKSISRSPGK
light: MDTSTSTALLGLLLLWLTGARCAIEMTQSPPSLSASVGETVRIRCLASEDIYSGISWYQQKPEKPPTLLISGASNLESGVPPRFSGGGSGTDYTLTIGGVQAEDVATYYCLGGYSFSSTGLTFGAGTKVEIKRDPVAPSVLLFPPSKEELTTGTATIVCVANKYFPDVTVTWEVDGTTQTTGIENSKTPQNSADCTYNLSSTLTLTSTQYNSHKEYTCKVTQGTTSVVQSFNRGDC
For the molecule B1, the “HPF FACS” value in assay [1] was “No”. Besides, the “Off Target” value in assay [2] is “No”. In addition, the “Inhibition of CHO-K1 adhesion to collagen” value (from here on “Inhibition”) in assay [3] is given as “Yes”. For the same molecule, the “I Domain binding” value in assay [4] is recorded as “No”. For the same molecule, the “Human α11β1 ELISA” value in assay [5] is “Yes”. For the same molecule, in assay [6], the “Murine α11β1 ELISA” value is listed as “No”. For the same molecule, the “MF FACS” value in assay [7] is reported as “Yes”.

B2: 5A7: rabbit anti-α11β1 mAb; heavy chain SEQ ID NO: 193, light chain SEQ ID NO: 194 (antibody)
heavy: METGLRWLLLVAVLKGVQCQSLEESGGGLVQPEGSLTLACTASGFSFSSYYYICWVRQAPGTGLEWIGCINTGSDDTHYASWLKGRFTFSKASSTTLTLQMTSLTAADTATYFCARSSGSSDDAYDLWGPGTLVTVSSGQPKAPSVFPLAPCCGDTPSSTVTLGCLVKGYLPEPVTVTWNSGTLTNGVRTFPSVRQSSGLYSLSSVVSVTSSSQPVTCNVAHPATNTKVDKTVAPSTCSKPMCPPPELPGGPSVFIFPPKPKDTLMISRTPEVTCVVVDVSQDDPEVQFTWYINNEQVRTARPPLREQQFNSTIRVVSTLPIAHQDWLRGKEFKCKVHNKALPAPIEKTISKARGQPLEPKVYTMGPPREELSSRSVSLTCMINGFYPSDISVEWEKNGKAEDNYKTTPTVLDSDGSYFLYSKLSVPTSEWQRGDVFTCSVMHEALHNHYTQKSISRSPGK
light: MDTRAPTQLLGLLLLWLPGARCDVVMTQTPASVSEPVGGAVTIKCQASQSIGSNLAWYQHKPGQPPKLLIYFASSLASGVSSRFKGGRSGTQFTLTISDLECADAATYYCHCTYYPLSYVTFGGGTEVVVKGDPVAPTVLIFPPAADQVATGTVTIVCVANKYFPDVTVTWEVDGTTQTTGIENSKTPQNSADCTYNLSSTLTLTSTQYNSHKEYTCKVTQGTTSVVQSFNRGDC
Take B2: the “HPF FACS” value in assay [1] is “No”. In addition, the “Off Target” value in assay [2] is recorded as “No”. The “Inhibition” value in assay [3] was “Yes”. Moreover, the “I Domain binding” value in assay [4] was “No”. The “Human α11β1 ELISA” value in assay [5] is on record as “Yes”. Besides, the “Murine α11β1 ELISA” value in assay [6] is recorded as “No”. Also, the “MF FACS” value in assay [7] is on record as “Yes”.

B3: 5D7: rabbit anti-α11β1 mAb; heavy chain SEQ ID NO: 191, light chain SEQ ID NO: 192 (antibody)
heavy: METGLRWLLLVAVLKGVQCQEQLVESGGGLVQPEGSLTLTCKASGFDFSSNAMCWVRQAPGKGLEWIACIYNGDGSTYYASWVNGRFTISKTSSTTVTLQMTSLTAADTATYFCARGLSNWNRDNLWGPGTLVTVSSGQPKAPSVFPLAPCCGDTPSSTVTLGCLVKGYLPEPVTVTWNSGTLTNGVRTFPSVRQSSGLYSLSSVVSVTSSSQPVTCNVAHPATNTKVDKTVAPSTCSKPMCPPPELPGGPSVFIFPPKPKDTLMISRTPEVTCVVVDVSQDDPEVQFTWYINNEQVRTARPPLREQQFNSTIRVVSTLPIAHQDWLRGKEFKCKVHNKALPAPIEKTISKARGQPLEPKVYTMGPPREELSSRSVSLTCMINGFYPSDISVEWEKNGKAEDNYKTTPTVLDSDGSYFLYSKLSVPTSEWQRGDVFTCSVMHEALHNHYTQKSISRSPGK
light: MDTRAPTQLLGLLLLWLPGATFAQVLTQTPSSVSAAVGGTATINCQASQSLYSPKNLAWYQQTPGQPPKLLIYSASKLASGVPSRFKGSGSGTQFTLTISGVQCDDAAIYYCQGEFSCTTAACFAFGGGTEVVVKGDPVAPTVLIFPPAADQVATGTVTIVCVANKYFPDVTVTWEVDGTTQTTGIENSKTPQNSADCTYNLSSTLTLTSTQYNSHKEYTCKVTQGTTSVVQSFNRGDC
Turning to B3, the “HPF FACS” value in assay [1] is “No”. For the same molecule, the “Off Target” value in assay [2] is given as “No”. For the same molecule, the “Inhibition” value in assay [3] is given as “Yes”. For the same molecule, in assay [4], the “I Domain binding” value is given as “No”. Also, in assay [5], the “Human α11β1 ELISA” value is recorded as “Yes”. Also, the “Murine α11β1 ELISA” value in assay [6] is “No”. Moreover, the “MF FACS” value in assay [7] is reported as “Yes”.

B4: 4E1: rabbit anti-α11β1 mAb; heavy chain SEQ ID NO: 195, light chain SEQ ID NO: 196 (antibody)
heavy: METGLRWLLLVAVLKGVQCQSLEESGGDLVKPGTSLTLSCTASGFSFGSYYYMCWVRQAPGKGLEWIACIDVGSSGDTYYASWVNGRFTISKTSSTTVTLQMTSLTAADTATYFCARDDTAAGGFGNLELWGPGTLVTVSSGQPKAPSVFPLAPCCGDTPSSTVTLGCLVKGYLPEPVTVTWNSGTLTNGVRTFPSVRQSSGLYSLSSVVSVTSSSQPVTCNVAHPATNTKVDKTVAPSTCSKPMCPPPELPGGPSVFIFPPKPKDTLMISRTPEVTCVVVDVSQDDPEVQFTWYINNEQVRTARPPLREQQFNSTIRVVSTLPIAHQDWLRGKEFKCKVHNKALPAPIEKTISKARGQPLEPKVYTMGPPREELSSRSVSLTCMINGFYPSDISVEWEKNGKAEDNYKTTPTVLDSDGSYFLYSKLSVPTSEWQRGDVFTCSVMHEALHNHYTQKSISRSPGK
light: MDTRAPTQLLGLLLLWLPGARCAFELTQTPSSVSEPVGGTVTIKCQASQSIYSYFSWYQQKPGQPPKRLIYQASTLASGVPSRFKGSGSGTDFTLTISDLECADAATYYCQNNYGRGSGSYFFGFGGGTEVVVKGDPVAPTVLIFPPAADQVATGTVTIVCVANKYFPDVTVTWEVDGTTQTTGIENSKTPQNSADCTYNLSSTLTLTSTQYNSHKEYTCKVTQGTTSVVQSFNRGDC
As for B4, the “HPF FACS” value in assay [1] is reported as “No”. Moreover, in assay [2], the “Off Target” value is on record as “No”. The “Inhibition” value in assay [3] is given as “Yes”. For the same molecule, in assay [4], the “I Domain binding” value is “No”. In addition, in assay [5], the “Human α11β1 ELISA” value is given as “Yes”. Besides, the “Murine α11β1 ELISA” value in assay [6] was “No”. Besides, the “MF FACS” value in assay [7] is recorded as “Yes”.
